Assay results as given in US5670316, “Diagnostic applications of double D-loop formation” (Daikin Industries, Ltd.).

Molecular target: RecA (UniProt P0A7G6 P0A7G6:2-353)
Test: EMSA; 2.4 mM ATPgammaS, 37 C 10 min; retardation increases over 0.137-13.7 uM RecA
Details: tags: wild-type, untagged; purified from overproducing strain JC12772 or purchased from Pharmacia; label: 32P 5'-end; both complementary strands, heat denatured
Method: RecA protein coating of probes was normally carried out in a standard 1× RecA coating reaction buffer (10× RecA reaction buffer: 100 mM Tris acetate (pH 7.5 at 37° C.), 20 mM magnesium acetate, 500 mM sodium acetate, 10 mM DTT and 50% glycerol (Cheng et al. 1988). All of the probes, whether double-stranded or single-stranded, were denatured before use by heating to 95°–100° C. for five minutes, placed on ice for one minute, and subjected in a Tomy centrifuge to centrifugation (10,000 rpm) at 0° C. for approximately 20 seconds. Denatured probes were added immediately to room temperature RecA coating reaction buffer mixed with ATPγS and diluent (double-distilled H_2O), as necessary.
Heat denatured ^32P-labeled double-stranded 121-mer and 159-mer DNA probes were reacted with RecA protein as described above. The final RecA-DNA reaction mixtures contained 2.4 mM ATPγS. RecA protein or RecA storage buffer was added to each of four reactions containing 0.01 μg of either denatured 121- or 159-mer DNA probe. The final concentration of RecA in each reaction was 0, 0.137, 1.37 or 13.7 μM in lanes 1 and 5, 2 and 6, 3 and 7 or 4 and 8, respectively (FIG. 3). All RecA/DNA probe coating reactions were performed in a final volume of 10 μl. RecA binding was initiated by incubating all the reactions at 37° C. for 10 min. […]

RecA, sequence (P0A7G6 2-353, one chain of several): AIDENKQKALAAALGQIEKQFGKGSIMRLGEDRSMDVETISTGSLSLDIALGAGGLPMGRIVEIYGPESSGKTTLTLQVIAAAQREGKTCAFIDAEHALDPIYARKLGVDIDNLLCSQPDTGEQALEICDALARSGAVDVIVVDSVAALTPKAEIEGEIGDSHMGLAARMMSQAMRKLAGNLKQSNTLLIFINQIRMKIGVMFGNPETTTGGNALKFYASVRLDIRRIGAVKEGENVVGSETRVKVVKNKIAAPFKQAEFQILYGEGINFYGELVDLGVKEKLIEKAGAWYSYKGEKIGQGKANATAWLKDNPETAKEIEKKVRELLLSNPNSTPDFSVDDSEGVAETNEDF

B1: lambda 159-mer probe (7472-7630), heat denatured (ssDNA)
DNA: CTGCATACTGATGCACTTCACGCCACGCGGGATGAACCTGTGGCATTTGTGCTGCCGGGAACGGCGTTTCGTGTCTCTGCCGGTGTGGCAGCCGAAATGACAGAGCGCGGCCTGGCCAGAATGCAATAACGGGAGGCGCTGTGGCTGATTTCGATAACC
Question: Does B1 bind?
Answer: Result: binds
